Read-outs that look alike come from different tables or passages of the source.
Key:
[1] = molecular target: Multiple peptide resistance factor (MprF) from Pseudomonas aeruginosa, wild type, CPD-His construct after IP6 cleavage (Pseudomonas aeruginosa); experiment: cryo-EM structure
[2] = molecular target: Multiple peptide resistance factor (MprF) from Pseudomonas aeruginosa, wild type, CPD-His construct after IP6 cleavage (Pseudomonas aeruginosa); experiment: cryo-EM structure; remark: listed apart in the source

Multiple peptide resistance factor (MprF) from Pseudomonas aeruginosa, wild type, CPD-His construct after IP6 cleavage (enzyme)
stoichiometry N [1]: 2 | stoichiometry N [2]: 2
